The record followed here is patent publication US20240043505A1 (UNIVERSITY OF PITTSBURGH OF THE COMMONWEALTH SYSTEM OF …, published 2024).

The target of the experiment is SARS-CoV-2 spike receptor-binding domain (RBD) (SARS-CoV-2, UniProt P0DTC2 319-541). Briefly: indirect ELISA on coated RBD ('ELISA affinity'). (ELISA stands for enzyme-linked immunosorbent assay.)

Positions count from the first letter of the chain named.

B1: Nb83 (VHH)
VHH: HVQLVESGGGLVQPGGSLRLSCAASGRSFNSYLMGWFRQAPGKEREFVAWISGSPHDIIRYRDSVKDRFTISRDNAKNTVYLQMNSLKPVDTAVYYCAVGSLRVGSFSPDYWGQGTQVTVSS
Take B1: the IC50 – broadly, the concentration at which inhibition is half-maximal – was determined as 1.51 nM.

B2: Nb68 (VHH)
VHH: QVQLVESGGGLVQAGGSLRLSCAASGGTLRSYNMGWFRQGPGKEREFVAAISWTGLGTYYGDSVKGRFTISRDVIKNTLYLQMDSLKPEDTAIYYCAADSSTSRLHSAGSDYRYWGQGTQVTVSS
Molecule B2 showed an IC50 of 6.11 nM.

B3: Nb42 (VHH)
VHH: HVQLVESGGGLVQAGESLRLSCVASGSIFSINAMGWFRQAPGKQRELVASISNIGTTIYAESVKGRFTISRDNAKNTADLQMNSLKPEDTAIYYCNLRQGCSYNGCDEYWGQGTQVTVSS
B3 had an IC50 of 0.66 nM.

B4: Nb64 (VHH)
VHH: QVQLVESGGGLVQAGGSLRLSCAVSGRTFSIAGMGWFRQAPGKDREFLGGITWNDGTTWYADSVKGRFTISRDNAKNMLSLRMNSLKPEDTAVYYCAAGPRLGSTPRAYDYWGQGTQVTVSS
With B4, the IC50 came out at 0.45 nM.

B5: Nb39 (VHH)
VHH: QVQLVESGGGLVQAGGSLRLSCAASGRTFRFSAIDWYRQAPGQQREFVASISTSGRISYGHFVKGRFTISRDNAKNTMYLQMNSLKPEDTAVYYCHLAQPDVFGGGDYWGQGTQVTVSS
B5 gave an IC50 of 1.49 nM.

B6: Nb15 (VHH)
VHH: EVQLVESGGGLVAAGGSLRLSCVPSTNIFSANAMGWYRQAPGKQRELVASITSGGNTNYADSVKGRFTISRDNADTVILQMNSLKPEDTAVYYCKGTAYSTTYNSVRDYWGQGTQVTVSS
The molecule B6 registered an IC50 of 0.47 nM.

B7: Nb80 (VHH)
VHH: HVQLVESGGGLVQPGGSLRLSCAASGNFFLINVMSWWRQAPGNEHELHELVATITSDGRTNYGDAVQGRFTISRDNAKNTLYLQMNSLKPEDTAVYYCYAQGQGNREYWGQGTQVTVSS
B7 came in with an IC50 of 5.09 nM.

B8: Nb43 (VHH)
VHH: EVQLVESGGGLVQAGGSLRLTCAASGRTFSSSTMDMGWFRQAPGKEREFVAVDAWNDGRTYYADSVKGRFTISRDNAKNTLYLQMNSLKPEDTAIYYCNLRQGCSYNGCDEYWGQGTQVTVSS
Regarding B8, the IC50 came to 664 nM.

B9: Nb11 (VHH)
VHH: HVQLVESGGGLVQAGGSLRLSCAVSGASAERVGWFRRAPGKEREFVAAIGANGGSTNYLDSVKGRFTISRDNAKNTVYLQMNSLKPQDTAVYYCAARNLETFDYTYWGRGTQVTVSS
On to B9, for which the IC50 amounted to 0.39 nM.

B10: Nb78 (VHH)
VHH: B9 VHH with H1Q, V24I, E30N, N52S, S55M, L99I, F102A, D103E, R109Q
Molecule B10 registered an IC50 of 0.61 nM.

B11: Nb82 (VHH)
VHH: DVQLVESGGGLVQAGGSLGLSCAASGSIFRLTAMGWYRQAPGKQRDLVTTITSAGIPHYADSVKGRFTISRDNAKNTVYLQMNGLKPEDTAVYYCYANTLNSQLLPRAYWGQGTQVTVSS
With B11, the IC50 was 0.86 nM.

B12: Nb2 (VHH)
VHH: QVQLVESGGGLVQAGGSLRLSCAASGRTFSIYNMGWFRQAPGKEREFVIHMNWSNGNTATAASVKDRFTISRDNAKNTVYLQMSSLKPEDTAVYYCHATTNDYDYWGQGTQVTVSS
With B12, the IC50 came to 4.82 nM.

B13: Nb60 (VHH)
VHH: HVQLVESGGGLVQAGDSLRLSCAASERTNINYAMGWFRQAPGKERDFVAAIGWNGSIIKYAESVKGRFTISRDDAKNTVSLQMNSLKPEDTAVYYCAARIGSIANLQPREYEFAYWGQGTQVTVSS
In the case of B13, the IC50 was found to be 138 nM.

B14: Nb41 (VHH)
VHH: DVQLVESGGGLVQAGGSLRLSCAASGFTFSNYVMYWGRQAPGKGREWVSGIDSDGSDTAYASSVKGRFTISRDNAKKTLYLQMNDLKPEDTALYYCVKSKDRYGSPWTRSEFEDYWGQGTQVTVSS
In turn, B14 came in with a 50% inhibitory concentration (IC50) of 0.2 nM.

B15: Nb55 (VHH)
VHH: DVQLVESGGGLVQAGGSLRLSCAASGRTFGSTMAWFRQAPGKERDFVAAITWSADRISYADSVKGRFTISRDNDKNIVHLQMNSLKPEDTAVYVCAARASSNTYDDPRSFAFWGQGTQVTVSS
Regarding B15, the IC50 was 2.24 nM.

B16: Nb3 (VHH)
VHH: HVQLVESGGGLVQAGGSLRLSCVASGSGFEPNAMGWYRQAPGKQRELVAGITSGGNTNYADSVKGRFTISRDNVKNTVYLQMNSLKPEDTAVYYCNAVAPRINPRGSPTNYWGQGTQVTVSS
Molecule B16 had an IC50 of 0.48 nM.

B17: Nb4 (VHH)
VHH: B16 VHH with H1Q, T57A, A99G, I102F
B17 registered an IC50 of 0.67 nM.

B18: Nb48 (VHH)
VHH: HVQLVESGGGLVQAGGSLRLSCAASGSIFRHYNMGWFRQAPGKEREFVSAISWTNIGTYYADSVKGRFSISRDNNRNTAYLEMNSLKPEDTAVYYCAADRSEFGSRLYSDENEYDYWGQGTQVTVSS
Regarding B18, the IC50 was 1.08 nM.

B19: Nb18 (VHH)
VHH: DVQLVESGGGLVQAGGSLRLSCAASGRTFSSYNVGWFRQAPGKEREFVAFIRWSGTSTYYADSVKGRFTISRDNAKNTVYLQMNSLKPEDTAVYYCAATSRTMIHTSQAMPINWDYWGQGTQVTVSS
Molecule B19 registered an IC50 of 0.57 nM.

B20: Nb84 (VHH)
VHH: B19 VHH with N33S, V34M, E89D, T99S, I104N, H105T, T106I, A109T, P111R
For B20, the IC50 came to 0.53 nM.

B21: Nb100 (VHH)
VHH: B19 VHH with D1E, R27L, V34M, N74T, P88L, A109T, P111R
With B21, the IC50 came to 1.04 nM.

B22: Nb63 (VHH)
VHH: QVQLVESGGGLVQAGGSLRLSCVASGSGFEPNAMGWYRQAPGKQRELVAGITSGGNANYADSVKGRFTISRDNVKNTVYLQMNSLKPEDTAVYYCQGPACSGSGCRNYWGQGTQVTVSS
The molecule B22 returned an IC50 of 0.84 nM.

B23: Nb62 (VHH)
VHH: HVQLVESGGGLVQAGGSLRLTCAASGRTFSSSTMDMGWFRQAPGKEREFVAVDAWNDGRTYYADSVKGRFTISRDNAKNTLYLQMNSLKPGDTAVYYCHAVDVSVGGDYWGQGTQVTVSS
Take B23: the IC50 came to 85.7 nM.

B24: Nb37 (VHH)
VHH: QVQLVESGGGLVQTGGSLRLSCAASGRTFSNYVMGWFRQAPGKEREFVSSIEWNSENTFYANSVKGRFTISRDNAKNTVYLQMNSLKAEDTAVYYCAADRGSSYYYTRASEYTYWGQGTQVTVSS
B24 came in with an IC50 of 0.38 nM.

B25: Nb24 (VHH)
VHH: QVQLVESGGGLVQAGGSLRLTCAASGGTFSTSTMDMGWFRQAPGKEREFVALDSWNGGRTYYADSVKGRFTISRDNAKNTLYLQMNSLKPEDTAVYYCAADTYSNYEKDDSWGYWGQGTQVTVSS
B25 yielded an IC50 of 0.77 nM.

B26: Nb28 (VHH)
VHH: B25 VHH with Q1H, T21S, G27R, A51G, L52A, G57D, S87N, D101E, N105L, D109S
The molecule B26 came in with an IC50 of 0.92 nM.

B27: Nb26 (VHH)
VHH: B25 VHH with Q1H, G27R, T31I, L52A, S54A, G57D, A99T, E107K
B27 came in with an IC50 of 0.92 nM.

B28: Nb32 (VHH)
VHH: DVQLVESGGGLVQAGGSLRLSCAASGRTFSSDTMDMGWFRQAPGKEREFVALHSWNGGKTYYADSVKGRFTISRDNAKNTLYLQMNNLKPEDTAVYYCAAETYTLYEKDSSWGYWGQGTQVTVSS
Consider B28, for which the IC50 is 2.17 nM.

B29: Nb29 (VHH)
VHH: B25 VHH with Q1H, L52V, G57D, T60A, D101E, D109A, D110Y
Molecule B29 gave an IC50 of 1.25 nM.

B30: Nb6 (VHH)
VHH: HVQLVESGGGLVQAGGSLRLSCAASGRTFSTHATGWFRQAPGKEREFLATSVWLDDISRDSTYYAESVKGRFSISRDNAKDTVYLQMNSLKPEDTAVYYCAVKQRVGPGIMSAPTYDYWGQGTQVTVSS
As to B30, the IC50 was found to be 0.57 nM.

B31: Nb74 (VHH)
VHH: HVQLVESGGGLVQAGGSLRLSCAASGRTFSSHAMAWFRQAPGKEREFVAGISWSGPYYVDSVKGRFTISTDNAKNTVYLQMNSLTPEDTAVYYCASSRGPNLYPHIGDVEYWGQGTQVTVSS
On to B31, for which the IC50 was found to be 67.1 nM.

B32: Nb16 (VHH)
VHH: DVQLVESGGGLVQAGESLRLSCAASGDMFSSNAMAWYRQAPGKQRELVASITSGGNTNYADSVKGRFTISRDNAKNTVYLQMDSLKPEDTAVYYCNGVAYDYSWGRPRNFWGQGTQVTVSS
Regarding B32, the IC50 was determined as 0.37 nM.

B33: Nb66 (VHH)
VHH: HVQLVESGGGLVQAGGSLRLSCAASGRTFSVNSIAWFRQAPGKEREFVATINWSGGDIYYADSVKGRFTISRDNGKNTVYLQMNSLKPTDTAVYYCAAARFYGRSIAQDYDSWGQGTQVTVSS
Molecule B33 yielded an IC50 of 0.33 nM.

B34: Nb76 (VHH)
VHH: DVQLVESGGGLVQAGGSLRLSCAVSGRTFSISTMGWFRQAPGKERLFVAGITWHDGSTNYADSVKGRFTISRDNAKNTVYLQMNSLKPEDTALYYCAARKSINYVQEYDYWGRGTQVTVSS
Molecule B34 returned an IC50 of 0.17 nM.

B35: Nb46 (VHH)
VHH: QVQLVESGGGLVQAGGSLRLSCAVSGSTLGINAIGWYRQPPGKQRELVASISSLGTTLYAESVKGRFAISRDNAKNTGYLQMNSLKPDDTAVYYCNMRTPYMRDYWGQGTQVTVSS
B35 showed an IC50 of 25.9 nM.

B36: Nb58 (VHH)
VHH: QVQLVESGGGLVQAGGSLRLSCAASGRDFSSTVMGWFRQAPGKERELVAWMTVTYDITYYADSVKGRFTISKDNAKNTVYLQANSLKPDDTAVYYCASGALRVGSFSPDYWGQGTQVTVSS
The molecule B36 displayed an IC50 of 2.68 nM.
